Experimental data taken from the RNAGym collection of RNA variant scans (doi:10.7554/elife.90254).

B1: LINE1-full (parent)
chain: UACGUAGGUGGUUUUCCCCUGAUAGUGCUAAGGGGGCCUGGAAGUUUGGACUGGGCAGAGCUCAACACAGCGUGGCAAAGUGGCUGUGGCUAGACUGCCUCUCUGGAUUCCUCGUCACUCAGCAGGGCAUCUCUGAGAGAAAUGCC

Variants of: B1
Experiment: self-cleavage, relative activity (ratio to wild type); higher = more cleavage; in vitro, sequencing; the parent is a self-cleaving ribozyme

Point of comparison: UACGUAGGUGGUUUUCCCCUGAUAGUGCUAAGGGGGCCUGGAAGUUUGGACUGGGCAGAGCUCAACACAGCGUGGCAAAGUGGCUGUGGCUAGACUGCCUCUCUGGAUUCCUCGUCACUCAGCAGGGCAUCCCUGGGAGAAAUGCC, self-cleavage 1.47. Against it:
- UACGUAGGUGGUUUUCCCCUGAUAGUGCUAAGGGGGCCUGGAAGUUUGGACUGGGCAGAGCUCAACACAGCGUGGCAAAGUGGCUGUGGCUAGACUGCCUCUCUGGAUUCCUCGUCACUCAGCAGGGCAUCACUGAGAGAAAUACC — higher, 1.82
- UACGUAGGUGGUUUUCCCCUGAUAGUGCUAAGGGGGCCUGGAAGUUUGGACUGGGCAGAGCUCAACACAGCGUGGCAAAGUGGCUGUGGCUAGACUGCCUCUCUGGAUUCCUCGUCACUCAGCAGGGCAUCACCGAGAGAAAUGCC — higher, 1.61
- UACGUAGGUGGUUUUCCCCUGAUAGUGCUAAGGGGGCCUGGAAGUUUGGACUGGGCAGAGCUCAACACAGCGUGGCAAAGUGGCUGUGGCUAGACUGCCUCUCUGGAUUCCUCGUCACUCAGCAGGGCAUCCCUGUGAGAAAUGCC — lower, 1.46
- UACGUAGGUGGUUUUCCCCUGAUAGUGCUAAGGGGGCCUGGAAGUUUGGACUGGGCAGAGCUCAACACAGCGUGGCAAAGUGGCUGUGGCUAGACUGCCUCUCUGGAUUCCUCGUCACUCAGCAGGGCAUCCCUGAGAGAUAUGCC — lower, 0.63
- UACGUAGGUGGUUUUCCCCUGAUAGUGCUAAGGGGGCCUGGAAGUUUGGACUGGGCAGAGCUCAACACAGCGUGGCAAAGUGGCUGUGGCUAGACUGCCUCUCUGGAUUCCUCGUCACUCAGCAGGGCAUCCCUGAGAGAAGUGCC — higher, 1.49
- UACGUAGGUGGUUUUCCCCUGAUAGUGCUAAGGGGGCCUGGAAGUUUGGACUGGGCAGAGCUCAACACAGCGUGGCAAAGUGGCUGUGGCUAGACUGCCUCUCUGGAUUCCUCGUCACUCAGCAGGGCAUCCAUGAGAGAAAUGCC — lower, 1.14
- UACGUAGGUGGUUUUCCCCUGAUAGUGCUAAGGGGGCCUGGAAGUUUGGACUGGGCAGAGCUCAACACAGCGUGGCAAAGUGGCUGUGGCUAGACUGCCUCUCUGGAUUCCUCGUCACUCAGCAGGGCAUCCUUGAGAGAAAUGCC — lower, 1.4
- UACGUAGGUGGUUUUCCCCUGAUAGUGCUAAGGGGGCCUGGAAGUUUGGACUGGGCAGAGCUCAACACAGCGUGGCAAAGUGGCUGUGGCUAGACUGCCUCUCUGGAUUCCUCGUCACUCAGCAGGGCAUCCCUAAGAGAAAUGCC — lower, 1.19
- UACGUAGGUGGUUUUCCCCUGAUAGUGCUAAGGGGGCCUGGAAGUUUGGACUGGGCAGAGCUCAACACAGCGUGGCAAAGUGGCUGUGGCUAGACUGCCUCUCUGGAUUCCUCGUCACUCAGCAGGGCAUCCCUGAGAGAAAUACC — higher, 1.86
- UACGUAGGUGGUUUUCCCCUGAUAGUGCUAAGGGGGCCUGGAAGUUUGGACUGGGCAGAGCUCAACACAGCGUGGCAAAGUGGCUGUGGCUAGACUGCCUCUCUGGAUUCCUCGUCACUCAGCAGGGCAUCCCAGAGAGAAAUGCC — lower, 0.73
- UACGUAGGUGGUUUUCCCCUGAUAGUGCUAAGGGGGCCUGGAAGUUUGGACUGGGCAGAGCUCAACACAGCGUGGCAAAGUGGCUGUGGCUAGACUGCCUCUCUGGAUUCCUCGUCACUCAGCAGGGCAUCCCCGAGAGAAAUGCC — lower, 1.35
- UACGUAGGUGGUUUUCCCCUGAUAGUGCUAAGGGGGCCUGGAAGUUUGGACUGGGCAGAGCUCAACACAGCGUGGCAAAGUGGCUGUGGCUAGACUGCCUCUCUGGAUUCCUCGUCACUCAGCAGGGCAUCCCUGAGAGAAAAGCC — lower, 1.35
- UACGUAGGUGGUUUUCCCCUGAUAGUGCUAAGGGGGCCUGGAAGUUUGGACUGGGCAGAGCUCAACACAGCGUGGCAAAGUGGCUGUGGCUAGACUGCCUCUCUGGAUUCCUCGUCACUCAGCAGGGCAUCCCUGAGAGAAACGCC — lower, 1.24
- UACGUAGGUGGUUUUCCCCUGAUAGUGCUAAGGGGGCCUGGAAGUUUGGACUGGGCAGAGCUCAACACAGCGUGGCAAAGUGGCUGUGGCUAGACUGCCUCUCUGGAUUCCUCGUCACUCAGCAGGGCAUCGCUGAGGGAAAUGCC — lower, 1.35
- UACGUAGGUGGUUUUCCCCUGAUAGUGCUAAGGGGGCCUGGAAGUUUGGACUGGGCAGAGCUCAACACAGCGUGGCAAAGUGGCUGUGGCUAGACUGCCUCUCUGGAUUCCUCGUCACUCAGCAGGGCAUCGCUGAGAGAGAUGCC — lower, 1.22
- UACGUAGGUGGUUUUCCCCUGAUAGUGCUAAGGGGGCCUGGAAGUUUGGACUGGGCAGAGCUCAACACAGCGUGGCAAAGUGGCUGUGGCUAGACUGCCUCUCUGGAUUCCUCGUCACUCAGCAGGGCAUCUAUGAGAGAAAUGCC — lower, 1.37
- UACGUAGGUGGUUUUCCCCUGAUAGUGCUAAGGGGGCCUGGAAGUUUGGACUGGGCAGAGCUCAACACAGCGUGGCAAAGUGGCUGUGGCUAGACUGCCUCUCUGGAUUCCUCGUCACUCAGCAGGGCAUCUAUGUGAGAAAUGCC — lower, 1.38
- UACGUAGGUGGUUUUCCCCUGAUAGUGCUAAGGGGGCCUGGAAGUUUGGACUGGGCAGAGCUCAACACAGCGUGGCAAAGUGGCUGUGGCUAGACUGCCUCUCUGGAUUCCUCGUCACUCAGCAGGGCAUCUAUGAGAGCAAUGCC — lower, 1.3
- UACGUAGGUGGUUUUCCCCUGAUAGUGCUAAGGGGGCCUGGAAGUUUGGACUGGGCAGAGCUCAACACAGCGUGGCAAAGUGGCUGUGGCUAGACUGCCUCUCUGGAUUCCUCGUCACUCAGCAGGGCAUCUAUGAGAGAAAUGAC — higher, 1.51
